3 substances from US20210040232A1 can be followed below.

In assay [1] the target is hCTLA-4 extracellular domain (aa 1-161) fused to the trans-membrane and cytoplasmic domain of hCD300a (aa 181-299), on Jurkat/NFAT-Luc cells (human) (UniProt Q9UGN4). The assay can be described thus: cell-based or functional assay.
The target in assay [2] is mf CTLA-4 extracellular domain (aa 1-161) fused to the trans-membrane and cytoplasmic domain of hCD300a (aa 181-299), on Jurkat/NFAT-Luc cells (Macaca fascicularis; human) (UniProt G7PL88). The assay can be described thus: cell-based or functional assay.
mf CTLA-4 extracellular domain (aa 1-161) fused to the trans-membrane and cytoplasmic domain of hCD300a (aa 181-299), on Jurkat/NFAT-Luc cells (Macaca fascicularis; human), sequence (Q9UGN4 other isoform, or with tags, fused parts or gaps, form in doubt): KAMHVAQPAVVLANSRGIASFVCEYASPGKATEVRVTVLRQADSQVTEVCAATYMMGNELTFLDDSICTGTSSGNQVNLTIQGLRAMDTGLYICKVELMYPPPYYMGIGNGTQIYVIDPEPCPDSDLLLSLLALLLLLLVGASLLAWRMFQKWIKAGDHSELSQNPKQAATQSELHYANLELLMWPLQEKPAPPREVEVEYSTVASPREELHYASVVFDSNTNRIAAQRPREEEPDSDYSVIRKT
Assay [3] deals with human CTLA-4 (amino acids M1-N223) on stably transfected VI-fibroblast cells (human) (UniProt P16410). The assay can be described thus: ECL cell binding, VI-fibroblast/hCTLA-4 cells.
human CTLA-4 (amino acids M1-N223) on stably transfected VI-fibroblast cells (human), sequence (P16410 36-223 limits assumed): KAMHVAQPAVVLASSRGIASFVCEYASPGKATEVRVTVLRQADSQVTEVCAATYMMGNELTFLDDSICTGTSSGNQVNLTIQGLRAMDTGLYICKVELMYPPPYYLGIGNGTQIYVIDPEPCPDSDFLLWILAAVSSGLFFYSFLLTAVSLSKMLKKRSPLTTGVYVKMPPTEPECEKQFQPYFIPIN

hCTLA-4 extracellular domain (aa 1-161) fused to the trans-membrane and cytoplasmic domain of hCD300a (aa 181-299), on Jurkat/NFAT-Luc cells (human), sequence (Q9UGN4 other isoform, or with tags, fused parts or gaps limits assumed, form in doubt): as the sequence (Q9UGN4 other isoform, or with tags, fused parts or gaps, form in doubt) above, with N14S, M106L counted along it

The substance hIgG1 Isotype Control (antibody) gave a Fold induction of IL-2 at 100 nM, APC HEK293/hCD20/hCD80 (isotype control) in assay [1] of 0.8 fold. This substance also gave a Fold induction of IL-2 at 100 nM, APC HEK293/hCD20/hCD86 (isotype control) in assay [2] of 1.1 fold. The ratio of RLU signal to parental VI-fibroblast at 0.4 nM Ab in assay [3] amounted to 1.

hIgG2 Isotype (antibody) showed a Fold induction of IL-2 at 100 nM, APC HEK293/hCD20/hCD80 (isotype control) in assay [1] of 1 fold. This substance displayed a Fold induction of IL-2 at 100 nM, APC HEK293/hCD20/hCD86 (isotype control) in assay [2] of 1 fold.

Take mIgG2 Isotype Control (antibody): in assay [3], the ratio of RLU signal to parental VI-fibroblast at 0.6 nM Ab was 1.
